Non-standard residues stand in square brackets, D forms with d. No end group written: not given here. pY = N[C@@H](Cc1ccc(OP(=O)(O)O)cc1)C(=O)O

The test has as its target T1, CD45-D1D2 (597–1213) C828S (human, UniProt P08575 622-1238, C828S, selenomethionine (Sel-Met) substituted in the crystals with the phosphopeptides).
T1 sequence (looked up): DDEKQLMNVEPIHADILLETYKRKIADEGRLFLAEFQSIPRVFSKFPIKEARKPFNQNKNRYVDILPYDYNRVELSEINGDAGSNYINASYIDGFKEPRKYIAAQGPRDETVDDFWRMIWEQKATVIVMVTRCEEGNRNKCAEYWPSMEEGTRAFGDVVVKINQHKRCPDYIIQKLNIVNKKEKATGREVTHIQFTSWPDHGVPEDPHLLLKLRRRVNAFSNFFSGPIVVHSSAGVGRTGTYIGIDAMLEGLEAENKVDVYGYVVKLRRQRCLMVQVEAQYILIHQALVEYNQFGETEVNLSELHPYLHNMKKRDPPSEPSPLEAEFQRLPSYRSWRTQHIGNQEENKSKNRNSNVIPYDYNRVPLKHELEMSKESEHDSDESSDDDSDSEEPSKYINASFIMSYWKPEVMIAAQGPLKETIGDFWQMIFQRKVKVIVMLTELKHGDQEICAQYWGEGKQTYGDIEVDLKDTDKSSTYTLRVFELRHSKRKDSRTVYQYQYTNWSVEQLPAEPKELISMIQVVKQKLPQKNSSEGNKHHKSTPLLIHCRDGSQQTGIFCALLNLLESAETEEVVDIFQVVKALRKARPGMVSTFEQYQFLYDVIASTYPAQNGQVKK
The test can be described thus: crystal structure.

B1: NPTpYS phosphopeptide derived from the polyoma middle T antigen (peptide)
peptide: NPT[pY]S
B1: the binding result is “binds”.

B2: CD3ζ ITAM-1 phosphopeptide (membrane proximal ITAM of the CD3ζ chain, both tyrosines phosphorylated) (peptide)
peptide: QQQQNQL[pY]NELNLGRREE[pY]DVLDKRRG
As for B2, the binding result was “binds”.

The values above are taken from PMC2213029 (The Journal of Experimental Medicine, 2005).
